# In article PMC7409537, “CYP20-3 deglutathionylates 2-CysPRX A and suppresses peroxide detoxification during heat stress” (Life Science Alliance, 2020):
# Positions count from the first letter of the chain named. “And” between values parts separate entries of the source, which are not always exact repeats. Identical values can stand only once.
# B1: endogenous GSH-glutathionylated 2CPA (2CPA^GS) in Arabidopsis leaf extracts (enzyme, UniProt Q96291 66-266, looked up)
# chain: KAQADDLPLVGNKAPDFEAEAVFDQEFIKVKLSDYIGKKYVILFFYPLDFTFVCPTEITAFSDRHSEFEKLNTEVLGVSVDSVFSHLAWVQTDRKSGGLGDLNYPLISDVTKSISKSFGVLIHDQGIALRGLFIIDKEGVIQHSTINNLGIGRSVDETMRTLQALQYIQENPDEVCPAGWKPGEKSMKPDPKLSKEYFSAI
# modifications: S-glutathionylated (as the paper names it: 2CPA^GS)
# notes: 2-Cys peroxiredoxin A (2CPA), Arabidopsis thaliana, At3g11630, endogenous plastid protein; Bands in WT extracts detected with 2CP antibody and put down to 2CPA^GS by the authors; source: endogenous, Arabidopsis (Col-0) leaf total protein extract
# B2: His-tagged GSH-glutathionylated 2-Cys peroxiredoxin B (His-tagged 2CPB^GS) (enzyme, Arabidopsis thaliana, UniProt Q9C5R8 73-273, looked up)
# chain: B1 chain with D34E, H65Y, S66E, I107V, V110I, H123P, I168V
# modifications: S-glutathionylated by GSH (mixed disulfide GS-S on a Cys)
# notes: C53 is C126 and C175 is C248 in Q9C5R8; Tagged version cloned BamHI/HindIII into pET28a; source: E. coli BL21 (DE3), purified (Ni-NTA), incubated with GSH
# B3: GSH-glutathionylated 2-Cys peroxiredoxin A (2CPA^GS), tag-free recombinant (enzyme, Arabidopsis thaliana)
# chain: GSHMKAQADDLPLVGNKAPDFEAEAVFDQEFIKVKLSDYIGKKYVILFFYPLDFTFVCPTEITAFSDRHSEFEKLNTEVLGVSVDSVFSHLAWVQTDRKSGGLGDLNYPLISDVTKSISKSFGVLIHDQGIALRGLFIIDKEGVIQHSTINNLGIGRSVDETMRTLQALQYIQENPDEVCPAGWKPGEKSMKPDPKLSKEYFSAI
# modifications: S-glutathionylated by GSH (mixed disulfide GS-S on a Cys; the discussion names the resolving Cys, CR^53)
# notes: four nonnative residues (Gly, Ser, His, Met) left at the N terminus after thrombin removal of the His-tag; C53 is C119 and C175 is C241 in Q96291; source: E. coli BL21 (DE3), purified (Ni-NTA), His-tag removed with thrombin, incubated with GSH; not shown: His-tag, N-terminal, cleaved
# B4: GSH-glutathionylated 2-Cys peroxiredoxin B (2CPB^GS), tag-free recombinant (enzyme, Arabidopsis thaliana)
# chain: B3 chain with D38E, H69Y, S70E, I111V, V114I, H127P, I172V
# modifications: S-glutathionylated by GSH (mixed disulfide GS-S on a Cys)
# notes: four nonnative residues (Gly, Ser, His, Met) left at the N terminus after thrombin removal of the His-tag; C53 is C126 and C175 is C248 in Q9C5R8; source: E. coli BL21 (DE3), purified (Ni-NTA), His-tag removed with thrombin, incubated with GSH; not shown: His-tag, N-terminal, cleaved
# B5: 2-Cys peroxiredoxin A (2CPA), tag-free recombinant, not glutathionylated (enzyme, Arabidopsis thaliana)
# chain: B3 chain
# notes: four nonnative residues (Gly, Ser, His, Met) left at the N terminus after thrombin removal of the His-tag; C53 is C119 and C175 is C241 in Q96291; also called 2-CysPRX A; 2CP isoform A; source: E. coli BL21 (DE3), purified (Ni-NTA), His-tag removed with thrombin; not shown: His-tag, N-terminal, cleaved
# B6: 2-Cys peroxiredoxin B (2CPB), tag-free recombinant, not glutathionylated (enzyme, Arabidopsis thaliana)
# chain: B3 chain with D38E, H69Y, S70E, I111V, V114I, H127P, I172V
# notes: four nonnative residues (Gly, Ser, His, Met) left at the N terminus after thrombin removal of the His-tag; C53 is C126 and C175 is C248 in Q9C5R8; also called 2-CysPRX B; 2CP isoform B; source: E. coli BL21 (DE3), purified (Ni-NTA), His-tag removed with thrombin; not shown: His-tag, N-terminal, cleaved
# Experiments:
# [1] = target: Cys to Ser mutant 2CPB C53S/C175S, tag-free (Arabidopsis thaliana); assay: nonreducing SDS/PAGE (redox shift visualization); 1 μM (Fig 1) or 1.5 μM (Fig S2) recombinant 2CP incubated with/without 1 mM GSH (50 mM Tris-HCl pH 7.5, 25°C, 30 min), nonreducing SDS/PAGE, Coomassie stain (anti-GSH Western blot in Fig S2); oligomer size read from gel mobility; self-association
# [2] = target: the molecule itself; assay: nonreducing SDS/PAGE with Western blot of plant extracts; total leaf protein extracts of Arabidopsis (WT Col-0, 2cpa, 2cpb, cyp20-3; untreated or 0, 3, 6 h post wounding), nonreducing SDS/PAGE, Western blot with anti-2CPA or anti-GSH antibody; oligomer size read from gel mobility
# [3] = target: the molecule itself; assay: nonreducing SDS/PAGE (redox shift visualization); 1 μM (Fig 1) or 1.5 μM (Fig S2) recombinant 2CP incubated with/without 1 mM GSH (50 mM Tris-HCl pH 7.5, 25°C, 30 min), nonreducing SDS/PAGE, Coomassie stain (anti-GSH Western blot in Fig S2); oligomer size read from gel mobility; self-association
# [4] = target: the molecule itself; assay: nonreducing SDS/PAGE (redox shift visualization); 1 μM tag-free 2CP incubated with 1 mM GSH and 0.1% (vol/vol) Triton X-100 (partial denaturation), nonreducing SDS/PAGE, Coomassie stain; self-association
# [5] = target: the molecule itself; assay: nonreducing SDS/PAGE (redox shift visualization); 1.5 μM 2CP^GS incubated with CYP20-3 (0-5 μM) at 42°C for 15 min, nonreducing SDS/PAGE, Coomassie stain and anti-GSH Western blot; self-association of the 2CP after the treatment
molecule,measurement,setting,value
"Cys to Ser mutant 2CPB C53S/C175S, tag-free (enzyme)",stoichiometry N,[1],10
B1,stoichiometry N,[2],2
B2,stoichiometry N,[3],20 and 10
B3,stoichiometry N,[4],10
same,stoichiometry N,[3],2
B4,stoichiometry N,[5],10
same,stoichiometry N,[3],20
B5,stoichiometry N,[5],2
B6,stoichiometry N,[3],10 and 20
